IntAct's records for PubMed 24525236

Molecular target: flt3_human FLT3 (UniProt P36888)
Sequence (P36888 whole entry): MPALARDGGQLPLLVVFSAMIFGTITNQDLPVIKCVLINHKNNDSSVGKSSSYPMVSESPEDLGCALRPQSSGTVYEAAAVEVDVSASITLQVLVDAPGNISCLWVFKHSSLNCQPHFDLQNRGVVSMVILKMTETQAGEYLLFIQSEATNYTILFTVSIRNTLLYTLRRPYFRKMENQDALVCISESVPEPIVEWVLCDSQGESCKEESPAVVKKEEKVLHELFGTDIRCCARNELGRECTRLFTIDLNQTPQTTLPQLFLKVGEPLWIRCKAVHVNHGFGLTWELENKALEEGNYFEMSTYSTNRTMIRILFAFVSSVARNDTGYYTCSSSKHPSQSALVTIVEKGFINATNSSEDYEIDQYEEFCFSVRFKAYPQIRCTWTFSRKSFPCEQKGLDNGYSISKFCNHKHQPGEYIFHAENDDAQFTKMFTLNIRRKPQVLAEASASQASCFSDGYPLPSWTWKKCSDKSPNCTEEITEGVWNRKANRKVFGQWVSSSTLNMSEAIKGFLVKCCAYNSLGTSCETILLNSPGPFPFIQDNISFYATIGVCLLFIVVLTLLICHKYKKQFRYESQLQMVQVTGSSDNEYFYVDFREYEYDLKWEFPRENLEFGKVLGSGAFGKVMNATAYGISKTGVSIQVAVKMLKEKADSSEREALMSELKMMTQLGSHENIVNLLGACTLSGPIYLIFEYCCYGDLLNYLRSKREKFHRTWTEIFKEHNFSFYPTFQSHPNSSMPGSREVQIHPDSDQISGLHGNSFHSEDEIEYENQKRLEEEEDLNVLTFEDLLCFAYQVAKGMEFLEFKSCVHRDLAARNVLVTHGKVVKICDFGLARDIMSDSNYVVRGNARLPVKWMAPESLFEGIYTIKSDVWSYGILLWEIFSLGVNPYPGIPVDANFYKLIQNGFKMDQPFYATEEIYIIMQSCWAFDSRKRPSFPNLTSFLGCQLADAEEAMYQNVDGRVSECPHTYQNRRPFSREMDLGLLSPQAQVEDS

With “Tyrosine-protein kinase SYK (Homo sapiens) (from UniProt P43405) R195G;R197L” the “effect of a mutation on the interaction” value was “decreasing interaction”.
